Biological target: Omicron BA.1 spike RBD (UniProt P0DTC2) (SARS-CoV-2) (UniProt P0DTC2)
Experiment: microfluidic diffusional sizing (MDS)

Row | Substance | fold reduction of binding affinity relative to wild type RBD
1 | Casirivimab (antibody) | > 100 fold
2 | Cilgavimab Biosimilar (antibody) | > 100 fold
3 | Tixagevimab Biosimilar (antibody) | > 100 fold
